Experiment [1] has as its target MHC class I molecule H-2K^d on CT26 target cells (mouse) (UniProt P01902). Description: cell-based or functional assay.
The target of experiment [2] is MHC class I molecule H-2L^d on CT26 target cells (mouse) (UniProt P01897). Description: cell-based or functional assay.
Chain of UniProt P01897 (P01897 25-362): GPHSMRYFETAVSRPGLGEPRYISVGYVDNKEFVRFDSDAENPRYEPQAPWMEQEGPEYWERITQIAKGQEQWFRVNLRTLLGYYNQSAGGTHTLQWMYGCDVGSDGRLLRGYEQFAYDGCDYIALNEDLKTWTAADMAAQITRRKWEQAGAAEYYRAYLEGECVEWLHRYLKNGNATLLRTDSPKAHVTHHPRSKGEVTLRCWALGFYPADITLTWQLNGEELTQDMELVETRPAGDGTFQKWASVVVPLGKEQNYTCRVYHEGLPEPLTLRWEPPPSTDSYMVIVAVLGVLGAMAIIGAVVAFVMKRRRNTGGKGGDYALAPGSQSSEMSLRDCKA

Chain of UniProt P01902 (P01902 22-368): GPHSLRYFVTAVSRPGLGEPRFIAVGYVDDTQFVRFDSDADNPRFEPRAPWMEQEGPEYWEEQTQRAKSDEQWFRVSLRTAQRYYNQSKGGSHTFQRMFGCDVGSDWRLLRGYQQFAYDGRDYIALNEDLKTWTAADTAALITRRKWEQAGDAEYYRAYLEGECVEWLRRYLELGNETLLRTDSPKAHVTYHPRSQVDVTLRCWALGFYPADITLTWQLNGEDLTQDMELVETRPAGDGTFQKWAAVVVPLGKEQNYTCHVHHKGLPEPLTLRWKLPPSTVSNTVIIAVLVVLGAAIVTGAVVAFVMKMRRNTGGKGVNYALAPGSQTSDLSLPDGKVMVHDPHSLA

Turning to “anti-MHC class I monoclonal antibody H-2K^d: SF1-1.1.1 (eBioScience)”, in experiment [1], the CTL activity (CFSE-based cytotoxicity assay, CT26 target cells pre-incubated with blocking antibodies) (fraction of the control values) came out at 0.33.
Turning to “anti-MHC class I monoclonal antibody H-2L^d: 28-14-8 (BioLegend)”, the CTL activity (CFSE-based cytotoxicity assay, CT26 target cells pre-incubated with blocking antibodies) (fraction of the control values) in experiment [2] was 0.33.

The record behind these values is patent US20160058856A1.
